Source: paper PMC10875981

Molecular target: FCγ receptor II (CD32), endogenous on K562 and U937 cells (human (endogenous in K562 and U937)) (UniProt P12318)
UniProt P12318, sequence (P12318 34-317): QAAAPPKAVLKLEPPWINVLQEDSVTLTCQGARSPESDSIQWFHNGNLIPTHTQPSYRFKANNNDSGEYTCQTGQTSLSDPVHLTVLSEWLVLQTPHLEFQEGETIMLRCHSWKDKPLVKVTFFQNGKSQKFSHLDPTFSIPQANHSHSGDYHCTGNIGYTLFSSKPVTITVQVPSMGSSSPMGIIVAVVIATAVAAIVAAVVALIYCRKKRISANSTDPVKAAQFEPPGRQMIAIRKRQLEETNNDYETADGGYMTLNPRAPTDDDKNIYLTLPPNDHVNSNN

CD107a^+ iNKT cells (treated with 6B11 mAb 50 ng/mL overnight, washed) after coculture with K562 cells, E/T 2:1, in the presence of the blocking anti-CD32 mAb (10 µg/mL): 1.8%
CD107a^+ iNKT cells (treated with 6B11 mAb 50 ng/mL overnight, washed) after coculture with K562 cells, E/T 2:1, with isotype mIgG1 (10 µg/mL): 52.8%
CD107a^+ iNKT cells (treated with 6B11 mAb 50 ng/mL overnight, washed) after coculture with U937 cells, E/T 2:1, in the presence of the anti-CD32 mAb: 15.6%
CD107a^+ iNKT cells (treated with 6B11 mAb 50 ng/mL overnight, washed) after coculture with U937 cells, E/T 2:1, with mIgG1 as a control: 38.3%
Substance: anti-Vα24Jα18 TCR mAb (6B11 mAb) (antibody)
